Consider 1 molecule from paper doi:10.1101/2023.02.09.527835 (bioRxiv, 2023).

This assay has as its target human complement C3a (human, UniProt P01024 672-748). Description: cryo-EM structure.

Sequence of human complement C3a (P01024 672-748): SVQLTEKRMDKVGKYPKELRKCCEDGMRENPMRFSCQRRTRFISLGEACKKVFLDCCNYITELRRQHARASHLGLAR

B1: human complement C3a receptor (C3aR), full-length, FLAG-M4(2-23)-C3aR construct for cryo-EM (receptor, UniProt P08173 2-23, looked up)
chain: ANFTPVNGSSGNQSVRLVTSSSMASFSAETNSTDLLSQPWNEPPVILSMVILSLTFLLGLPGNGLVLWVAGLKMQRTVNTIWFLHLTLADLLCCLSLPFSLAHLALQGQWPYGRFLCKLIPSIIVLNMFASVFLLTAISLDRCLVVFKPIWCQNHRNVGMACSICGCIWVVAFVMCIPVFVYREIFTTDNHNRCGYKFGLSSSLDYPDFYGDPLENRSLENIVQPPGEMNDRLDPSSFQTNDHPWTVPTVFQPQTFQRPSADSLPRGSARLTSQNLYSNVFKPADVVSPKIPSGFPIEDHETSPLDNSDAFLSTHLKLFPSASSNSFYESELPQGFQDYYNLGQFTDDDQVPTPLVAITITRLVVGFLLPSVIMIACYSFIVFRMQRGRFAKSQSKTFRVAVVVVAVFLVCWTPYHIFGVLSLLTDPETPLGKTLMSWDHVCIALASANSCFNPFLYALLGKDFRKKARQSIQGILEAAFSEELTRSTHCPSNNVISERNSTTV
modifications: alkylated with iodoacetamide
In the case of B1, the binding result is “binds”.
